# According to patent publication JP2014141434A (dated 2014):
# T1: ラットROBO4 (pCI−raROBO4導入細胞) (rat, UniProt Q80W87 38-949 at identity 0.93))
# T1 construct: also called rat ROBO4; raROBO4
# T1 chain: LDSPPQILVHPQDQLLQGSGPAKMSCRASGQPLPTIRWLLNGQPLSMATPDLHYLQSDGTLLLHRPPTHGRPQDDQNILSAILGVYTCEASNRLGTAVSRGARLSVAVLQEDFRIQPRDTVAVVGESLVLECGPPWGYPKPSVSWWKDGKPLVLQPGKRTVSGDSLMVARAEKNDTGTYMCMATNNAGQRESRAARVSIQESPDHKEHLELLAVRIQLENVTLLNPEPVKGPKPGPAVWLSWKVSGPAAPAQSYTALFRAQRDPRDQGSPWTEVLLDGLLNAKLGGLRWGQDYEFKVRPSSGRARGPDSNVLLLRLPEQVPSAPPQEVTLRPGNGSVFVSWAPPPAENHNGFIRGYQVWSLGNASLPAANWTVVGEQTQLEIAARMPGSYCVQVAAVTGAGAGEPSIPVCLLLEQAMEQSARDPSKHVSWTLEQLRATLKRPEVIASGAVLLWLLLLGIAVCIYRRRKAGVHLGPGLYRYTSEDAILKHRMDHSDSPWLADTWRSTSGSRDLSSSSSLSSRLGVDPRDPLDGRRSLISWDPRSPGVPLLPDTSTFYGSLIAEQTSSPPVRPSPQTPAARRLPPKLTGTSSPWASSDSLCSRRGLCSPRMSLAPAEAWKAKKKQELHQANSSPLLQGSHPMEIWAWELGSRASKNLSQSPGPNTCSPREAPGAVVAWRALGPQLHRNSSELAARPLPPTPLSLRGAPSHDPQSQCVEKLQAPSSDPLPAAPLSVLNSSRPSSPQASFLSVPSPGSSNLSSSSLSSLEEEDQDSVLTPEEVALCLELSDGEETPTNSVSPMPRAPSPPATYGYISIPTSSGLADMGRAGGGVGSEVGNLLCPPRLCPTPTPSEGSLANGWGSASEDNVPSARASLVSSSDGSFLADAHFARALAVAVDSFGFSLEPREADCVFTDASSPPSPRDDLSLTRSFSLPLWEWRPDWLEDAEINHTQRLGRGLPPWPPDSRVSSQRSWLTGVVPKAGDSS
# T2: ヒトROBO2 (human)
# T2 construct: also called hROBO2; pCI−hROBO2
# T2 chain: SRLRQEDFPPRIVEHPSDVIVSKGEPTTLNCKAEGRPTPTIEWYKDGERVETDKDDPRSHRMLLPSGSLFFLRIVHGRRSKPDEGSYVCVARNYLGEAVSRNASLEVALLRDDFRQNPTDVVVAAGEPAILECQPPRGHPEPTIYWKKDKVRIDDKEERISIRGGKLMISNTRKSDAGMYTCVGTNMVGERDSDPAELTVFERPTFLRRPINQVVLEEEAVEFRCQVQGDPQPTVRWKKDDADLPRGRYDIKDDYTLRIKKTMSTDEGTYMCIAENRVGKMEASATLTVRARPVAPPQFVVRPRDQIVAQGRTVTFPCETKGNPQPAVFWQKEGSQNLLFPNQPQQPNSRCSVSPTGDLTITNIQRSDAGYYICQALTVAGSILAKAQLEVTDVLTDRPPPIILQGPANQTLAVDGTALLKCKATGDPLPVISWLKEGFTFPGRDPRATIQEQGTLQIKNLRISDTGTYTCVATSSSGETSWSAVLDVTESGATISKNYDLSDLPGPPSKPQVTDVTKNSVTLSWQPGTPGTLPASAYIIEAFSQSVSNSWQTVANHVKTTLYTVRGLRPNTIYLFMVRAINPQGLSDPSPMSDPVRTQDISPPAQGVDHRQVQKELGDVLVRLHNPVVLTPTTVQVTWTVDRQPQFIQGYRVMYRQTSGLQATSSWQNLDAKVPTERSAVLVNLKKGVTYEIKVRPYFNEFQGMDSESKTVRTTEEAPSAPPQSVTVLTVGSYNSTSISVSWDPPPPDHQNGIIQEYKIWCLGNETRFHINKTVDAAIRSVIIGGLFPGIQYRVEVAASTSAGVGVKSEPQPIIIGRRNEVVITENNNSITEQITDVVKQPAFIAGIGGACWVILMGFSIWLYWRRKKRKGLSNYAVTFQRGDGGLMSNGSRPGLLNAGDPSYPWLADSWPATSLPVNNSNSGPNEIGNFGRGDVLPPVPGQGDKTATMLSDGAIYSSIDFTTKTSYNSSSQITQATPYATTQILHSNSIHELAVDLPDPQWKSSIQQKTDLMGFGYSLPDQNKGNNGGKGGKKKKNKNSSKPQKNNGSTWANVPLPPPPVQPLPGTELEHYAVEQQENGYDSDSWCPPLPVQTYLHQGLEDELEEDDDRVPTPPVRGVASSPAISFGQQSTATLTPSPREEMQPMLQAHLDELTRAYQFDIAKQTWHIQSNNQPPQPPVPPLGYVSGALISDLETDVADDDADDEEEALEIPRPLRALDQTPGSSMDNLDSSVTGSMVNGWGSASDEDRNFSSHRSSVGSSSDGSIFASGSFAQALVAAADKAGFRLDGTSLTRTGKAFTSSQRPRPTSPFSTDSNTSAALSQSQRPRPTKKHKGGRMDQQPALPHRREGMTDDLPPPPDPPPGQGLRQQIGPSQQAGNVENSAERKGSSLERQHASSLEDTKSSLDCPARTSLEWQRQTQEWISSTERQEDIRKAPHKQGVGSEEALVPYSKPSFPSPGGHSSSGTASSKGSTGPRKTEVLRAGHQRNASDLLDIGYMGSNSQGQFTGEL
# Tests used:
# [1] = biological target: T1, ラットROBO4 (pCI−raROBO4導入細胞); test: flow cytometry, transfected HEK293 cells
# ヒトROBO2 = biological target: T2, ヒトROBO2; test: flow cytometry, transfected HEK293 cells
Binder,binding result [1],binding result (ヒトROBO2)
"抗ROBO4マウスモノクローナル抗体 MAb1 (antibody, V domains shown, Mouse IgG1 (gamma 1) / kappa from a hybridoma; The constant regions are not in the listing; also called MAb1) VH: EVQLVESGGGLVKPGGSLKLSCAASGFTFSTYAMSWVRQTPEKRLEWVATISNGGTYTYYPDSVKGRFTISRDNAENTLYLQMSSLRSEDTAMYFCARLIYYDYLDYWGHGTTLTVSS VL: DAVMTQTPLSLPVSLGDQASISCRSSQSLENSNGNTYLNWYFQKPGQSPQLLIYRVSNRFSGVLDRFSGSGSGTDFTLKISRVEAEDFGVYFCLQVTHVPWTFGGGTKLEIKR",no binding (tested: 10 μg/mL),no binding (tested: 10 μg/mL)
"ヒト化MAb1抗体 H−2143 (antibody, human IgG2, kappa, V domains shown, Humanised IgG2 / kappa; also called H-2143; hMAb1-H4 / hMAb1-L2) VH: EVQLVESGGGLVQPGGSLRLSCAASGFTFSTYAMSWVRQAPGKRLEWVATISQGGTYTYYPDSVKGRFTISRDNAKNTLYLQMNSLRAEDTAVYYCARLIYYDYLDYWGQGTLVTVSS VL: DIVMTQSPLSLPVTLGEPASISCRSSQSLENENKNLYLNWYLQKPGQSPQLLIYRVSNRFSGVPDRFSGSGSGTDFTLKISRVEAEDVGVYYCLQVTHVPWTFGPGTKVDIKR",no binding (tested: 10 μg/mL (method of 4)-3-2)),no binding (tested: 10 μg/mL (method of 4)-4-2))
"ヒト化MAb1抗体 H−2140 (antibody, human IgG2, kappa, V domains shown, Humanised IgG2 / kappa; also called H-2140; hMAb1-H4 / hMAb1-L1) VH: EVQLVESGGGLVQPGGSLRLSCAASGFTFSTYAMSWVRQAPGKRLEWVATISQGGTYTYYPDSVKGRFTISRDNAKNTLYLQMNSLRAEDTAVYYCARLIYYDYLDYWGQGTLVTVSS VL: DIVMTQSPLSLPVTLGEPASISCRSSQSLENSNGNTYLNWYLQKPGQSPQLLIYRVSNRFSGVPDRFSGSGSGTDFTLKISRVEAEDVGVYYCLQVTHVPWTFGPGTKVDIKR",no binding (tested: 10 μg/mL (method of 4)-3-2)),no binding (tested: 10 μg/mL (method of 4)-4-2))
"ヒト化MAb1抗体 H−1143 (antibody, human IgG2, kappa, V domains shown, Humanised IgG2 / kappa; also called H-1143; hMAb1-H2 / hMAb1-L2) VH: EVQLVESGGGLVQPGGSLRLSCAASGFTFSTYAMSWVRQAPGKGLEWVATISQGGTYTYYPDSVKGRFTISRDNAKNTLYLQMNSLRAEDTAVYYCARLIYYDYLDYWGQGTLVTVSS VL: DIVMTQSPLSLPVTLGEPASISCRSSQSLENENKNLYLNWYLQKPGQSPQLLIYRVSNRFSGVPDRFSGSGSGTDFTLKISRVEAEDVGVYYCLQVTHVPWTFGPGTKVDIKR",no binding (tested: 10 μg/mL (method of 4)-3-2)),no binding (tested: 10 μg/mL (method of 4)-4-2))
